What was measured:
[1] = tested on: NCI-H460 tumor-bearing mice (lung cancer); experiment: Biodistribution: lutetium accumulation in tumor, plasma and healthy tissues by ICP-MS; format: in vivo; details: for T/K (Tumor/Kidney ratio) / T/L (Tumor/Liver ratio) / T/P (Tumor/Plasma ratio) / Kidney uptake, % ID/g 24 h / Liver uptake, % ID/g 24 h / Plasma, % ID/g 24 h / Tumor uptake, % ID/g, 24 h / % ID/g uptake, H460 tumor, 24 h / % ID/g uptake, Kidney, 24 h / % ID/g uptake, Liver, 24 h / % ID/g uptake, Plasma, 24 h: 24 h; for Kidney uptake, % ID/g 24 h / Liver uptake, % ID/g 24 h / Plasma, % ID/g 24 h / Tumor uptake, % ID/g, 24 h: second table; for % ID/g uptake, H460 tumor, 24 h / % ID/g uptake, H460 tumor, 72 h / % ID/g uptake, Kidney, 24 h / % ID/g uptake, Kidney, 72 h / % ID/g uptake, Liver, 24 h / % ID/g uptake, Liver, 72 h / % ID/g uptake, Plasma, 24 h / % ID/g uptake, Plasma, 72 h: 0.5 mg/kg lutetium conjugate
Procedure: Lutetium accumulation was measured in tumor, plasma and healthy tissues of NCI-H460 tumor-bearing mice (lung cancer). NCJ-H460 tumor bearing mice were dosed with 0.5 mg/kg of lutetium conjugates. At the time points indicated, mice were sacrificed and tumor, liver, kidneys and plasma were taken. All tissues were analyzed for lutetium content by ICP-MS, and lutetium uptake in % ID/g determined by the following equation: […]
Biodistribution at 24 h and Tumor/Kidney ratio (T/K), Tumor/Liver ratio (T/L), Tumor/Plasma ratio (T/P) are give in the table below.

NCI-H460 tumor model [2] = experiment: Distribution of cold (Lu175) analog of CMP6; format: in vivo
Procedure: In yet another study with the NCI-H460 tumor model, the distribution of the cold analog of CMP6 was measured at 24 hours and 72 hours.

NCI-H460 tumor model [3] = experiment: Distribution of radioactive (177Lu) versus non-radioactive (175Lu) analog of CMP51; format: in vivo; details: radioactive analog comprising Lu177
Procedure: In another study with the NCI-H460 tumor model, the distribution of the radioactive (hot) analog of CMP51 (177Lu) and the distribution of the non-radioactive (cold) analog of CMP51 (175Lu) at 24 hours and 72 hours were tested and compared.

[4] = biological target: T1, purified N-terminal HSP90a (Homo sapiens, UniProt P07900); experiment: HSP90 binding, competitive fluorescence polarization assay
T1 construct: 350 ng of N-terminal HSP90a
Procedure: HSP90 binding was determined by a competitive fluorescence polarization assay with purified N-terminal HSP90a. A series of dilutions of the test compounds were prepared with 10% DMSO in assay buffer and 10 μl of the dilution was added to a 100 μl reaction so that the final concentration of DMSO is 1% in all reactions. The reactions were conducted at room temperature for 3 hours in a 100 μl mixture containing assay buffer, 5 nM FITC Labeled Geldanamycin, 350 ng of N-terminal HSP90a, and the test compound. Fluorescence intensity was measured at an excitation of 485 nm and an emission of 530 nm using a Tecan Infinite M1000 microplate reader. Fluorescence intensity is converted to fluorescence polarization using the Tecan Magellan6 software. The fluorescence polarization data were analyzed using the computer software, Graphpad Prism. The fluorescence polarization (FPt) in absence of the compound in each data set was defined as 100% activity. In the absence of protein and the compound, the value of fluorescent polarization (FPb) in each data set was defined as 0% activity. The percent activity in the presence of the compound was calculated according to the following equation: % activity=(FP−FPb)/(FPt−FPb)×100%, where FP=the fluorescence polarization in the presence of the compound. HSP90 binding data are below.

[5] = cold analog, 24 hours and 72 hours, FIG. 2

Row | SMILES | % ID/g uptake, H460 tumor, 24 h [1] [% ID/g] | % ID/g uptake, H460 tumor, 72 h [1] [% ID/g] | % ID/g uptake, Kidney, 24 h [1] [% ID/g] | % ID/g uptake, Kidney, 72 h [1] [% ID/g] | % ID/g uptake, Liver, 24 h [1] [% ID/g] | % ID/g uptake, Liver, 72 h [1] [% ID/g] | % ID/g uptake, Plasma, 24 h [1] [% ID/g] | % ID/g uptake, Plasma, 72 h [1] [% ID/g] | Kd [4] [nM] | further results
1 | CCNC(=O)c1nnc(-c2cc(C(C)C)c(O)cc2O)n1-c1ccc(OC2CCN(C(=O)CCOCCOCCOCCOCCNC(=O)[C@H](CCCCNC(=O)CCCc3ccc(I)cc3)NC(=O)CN3CCN4CCN5CCN(CC3)CC(=O)[O][Lu]([O]C(=O)C4)[O]C(=O)C5)CC2)cc1 [CMP6] | – | – | – | – | – | – | – | – | – | T/K (Tumor/Kidney ratio) [1]: 5.48; T/L (Tumor/Liver ratio) [1]: 4.98; T/P (Tumor/Plasma ratio) [1]: 1.98; Kidney uptake, % ID/g 24 h [1]: 0.62 % ID/g; Liver uptake, % ID/g 24 h [1]: 0.68 % ID/g; Plasma, % ID/g 24 h [1]: 1.72 % ID/g; Tumor uptake, % ID/g, 24 h [1]: 3.40 % ID/g; kidney uptake and retention (NCI-H460 tumor model [2]; [5]): significantly reduced kidney uptake and retention; liver uptake (NCI-H460 tumor model [2]; [5]): significantly reduced; tumor to liver and tumor to kidney ratios at 72 hours (NCI-H460 tumor model [2]; cold analog, 72 hours versus 24 hours): enhanced at 72 hours; tumor to liver and tumor to kidney ratios (NCI-H460 tumor model [2]; cold analog, FIG. 2): High tumor to liver and tumor to kidney ratios; tumor retention selectivity (FIG. 2 legend) (NCI-H460 tumor model [2]; non-radioactive analog comprising Lu175): selective tumor retention over kidney and liver
2 | CCNC(=O)c1nnc(-c2cc(C(C)C)c(O)cc2O)n1-c1ccc(CN2CCN(C(=O)CCNC(=O)[C@@H](CCC(=O)O)NC(=O)[C@@H](CCC(=O)O)NC(=O)[C@@H](CCC(=O)O)NC(=O)COCCOCCNC(=O)CCCCn3cc(CN(CCCNC(=O)CC[C@H](C(=O)O)N4CCN5CCN6CC(=O)[O][Lu]([O]C(=O)C5)[C]5(C6)OC(=O)CN5CC4)C(=O)CCCNC(=O)CCCc4ccc(I)cc4)nn3)CC2)cc1 (some centres unmarked) [CMP51] | – | – | – | – | – | – | – | – | – | T/K (Tumor/Kidney ratio) [1]: 0.7; T/L (Tumor/Liver ratio) [1]: 5.6; T/P (Tumor/Plasma ratio) [1]: 2.5; Kidney uptake, % ID/g 24 h [1]: 10.37 % ID/g; Liver uptake, % ID/g 24 h [1]: 1.35 % ID/g; Plasma, % ID/g 24 h [1]: 3.01 % ID/g; Tumor uptake, % ID/g, 24 h [1]: 7.54 % ID/g; tumor exposure selectivity (FIG. 1 legend) (NCI-H460 tumor model [3]): selective tumor exposure with the exception of kidney
3 | CCNC(=O)c1nnc(-c2cc(C(C)C)c(O)cc2O)n1-c1ccc(CN2CCN(C(=O)CCNC(=O)[C@@H](CCC(=O)N3CCN(Cc4ccc(-n5c(C(=O)NCC)nnc5-c5cc(C(C)C)c(O)cc5O)cc4)CC3)NC(=O)CCNC(=O)[C@@H](CCC(=O)O)NC(=O)[C@@H](CCC(=O)O)NC(=O)[C@@H](CCC(=O)O)NC(=O)COCCOCCNC(=O)CC[C@H](C(=O)O)N3CCN4CCN5CCN(CC3)CC(=O)[O][Lu]([O]C(=O)C5)[O]C(=O)C4)CC2)cc1 [T4] | 3.06 | 2.19 | 4.86 | 2.28 | 0.59 | 0.62 | 0.21 | 0.09 | 0.45 | –
4 | CCNC(=O)c1nnc(-c2cc(C(C)C)c(O)cc2O)n1-c1ccc(OC2CCN(C(=O)CCNC(=O)[C@@H](CCC(=O)N3CCC(Oc4ccc(-n5c(C(=O)NCC)nnc5-c5cc(C(C)C)c(O)cc5O)cc4)CC3)NC(=O)CC[C@H](C(=O)O)N3CCN4CCN5CCN(CC3)CC(=O)[O][Lu]([O]C(=O)C5)[O]C(=O)C4)CC2)cc1 [T6] | 7.00 | 4.52 | 6.77 | 2.57 | 10.70 | 8.90 | 1.65 | 1.89 | 0.45 | –
5 | CCNC(=O)c1nnc(-c2cc(C(C)C)c(O)cc2O)n1-c1ccc(CN2CCN(C(=O)CCNC(=O)[C@@H](CCC(=O)N3CCN(Cc4ccc(-n5c(C(=O)NCC)nnc5-c5cc(C(C)C)c(O)cc5O)cc4)CC3)NC(=O)CCNC(=O)[C@@H](CCC(=O)O)NC(=O)[C@@H](CCC(=O)O)NC(=O)[C@@H](CCC(=O)O)NC(=O)COCCOCCNC(=O)[C@H](Cc3ccccc3)NC(=O)CNC(=O)CNC(=O)CC[C@H](C(=O)O)N3CCN4CCN5CCN(CC3)CC(=O)[O][Lu]([O]C(=O)C5)[O]C(=O)C4)CC2)cc1 [T8] | 1.00 | 0.44 | 3.24 | 0.84 | 0.30 | 0.07 | 0.17 | 0.00 | 0.48 | –
6 | CCNC(=O)c1nnc(-c2cc(C(C)C)c(O)cc2O)n1-c1ccc(CN2CCN(C(=O)CCNC(=O)[C@@H](CCC(=O)N3CCN(Cc4ccc(-n5c(C(=O)NCC)nnc5-c5cc(C(C)C)c(O)cc5O)cc4)CC3)NC(=O)CCNC(=O)[C@@H](CCC(=O)O)NC(=O)[C@@H](CCC(=O)O)NC(=O)[C@@H](CCC(=O)O)NC(=O)COCCOCCNC(=O)CNC(=O)[C@H](CCCCN)NC(=O)CNC(=O)CC[C@H](C(=O)O)N3CCN4CCN5CCN(CC3)CC(=O)[O][Lu]([O]C(=O)C5)[O]C(=O)C4)CC2)cc1 [T9] | 2.43 | 0.93 | 8.15 | 2.78 | 0.62 | 0.25 | 26.50 | 1.53 | 0.47 | –
7 | CCNC(=O)c1nnc(-c2cc(C(C)C)c(O)cc2O)n1-c1ccc2c(ccn2CCC2CCN(C(=O)CC[C@H](NC(=O)CC[C@H](C(=O)O)N3CCN4CCN5CCN(CC3)CC(=O)[O][Lu]([O]C(=O)C5)[O]C(=O)C4)C(=O)N3CCC(CCn4ccc5cc(-n6c(C(=O)NCC)nnc6-c6cc(C(C)C)c(O)cc6O)ccc54)CC3)CC2)c1 [T10] | 3.91 | 3.18 | 14.70 | 7.74 | 7.28 | 4.34 | 2.29 | 0.37 | 0.77 | –
8 | CCNC(=O)c1nnc(-c2cc(C(C)C)c(O)cc2O)n1-c1ccc(OC2CCN(C(=O)CCNC(=O)[C@@H](CCC(=O)O)NC(=O)[C@@H](CCC(=O)O)NC(=O)[C@@H](CCC(=O)O)NC(=O)COCCOCCNC(=O)[C@H](CCCCNC(=O)CC[C@H](C(=O)O)N3CCN4CCN5CCN(CC3)CC(=O)[O][Lu]([O]C(=O)C5)[O]C(=O)C4)NC(=O)CCCc3ccc(I)cc3)CC2)cc1 [T11] | 6.37 | 1.74 | 14.90 | 5.21 | 1.03 | 0.46 | 0.51 | 0.02 | 0.7 | –
9 | CCNC(=O)c1nnc(-c2cc(C(C)C)c(O)cc2O)n1-c1ccc(CN2CCN(C(=O)CCNC(=O)[C@@H](CCC(=O)N3CCN(Cc4ccc(-n5c(C(=O)NCC)nnc5-c5cc(C(C)C)c(O)cc5O)cc4)CC3)NC(=O)CCNC(=O)[C@@H](CCC(=O)O)NC(=O)[C@@H](CCC(=O)O)NC(=O)[C@@H](CCC(=O)O)NC(=O)COCCOCCNC(=O)[C@H](Cc3ccccc3)NC(=O)CNC(=O)[C@H](CCCCNC(=O)CC[C@H](C(=O)O)N(CC)CCN3CCN4CCN(C)CC(=O)[O][Lu]([O]C(=O)C4)[O]C(=O)C3)NC(=O)CCCc3ccc(I)cc3)CC2)cc1 [T15] | 2.16 | 0.70 | 12.50 | 4.37 | 1.78 | 1.16 | 2.79 | 0.14 | 0.43 | –
